Molecular target: CaM (endogenous calmodulin of Arabidopsis plants)

B1: DWF1(Δ518-539), full length, expressed in planta from 35S::DWF1(Δ518-539) (protein)
chain: MSDLQTPLVRPKRKKTWVDYFVKFRWIIVIFIVLPFSATFYFLIYLGDMWSESKSFEKRQKEHDENVKKVIKRLKGRDASKDGLVCTARKPWIAVGMRNVDYKRARHFEVDLGEFRNILEINKEKMTARVEPLVNMGQISRATVPMNLSLAVVAELDDLTVGGLINGYGIEGSSHIYGLFADTVEAYEIVLAGGELVRATRDNEYSDLYYAIPWSQGTLGLLVAAEIRLIKVKEYMRLTYIPVKGDLQALAQGYIDSFAPKDGDKSKIPDFVEGMVYNPTEGVMMVGTYASKEEAKKKGNKINNVGWWFKPWFYQHAQTALKKGQFVEYIPTREYYHRHTRCLYWEGKLILPFGDQFWFRYLLGWLMPPKVSLLKATQGEAIRNYYHDMHVIQDMLVPLYKVGDALEWVHREMEVYPIWLCPHKLFKQPIKGQIYPEPGFEYENRQGDTEDAQMYTDVGVYYAPGCVLRGEEFDGSEAVRRMEKWLIENHGFQPQYAVSELDEKSFWRMFNGELYEEKTEKEVREAEQAHLETAYAEAD
  complementation of the dwf1 null mutant (plant phenotype): grew like the uncomplemented dwf1 mutants

B2: DWF1(V531D), full length, expressed in planta from 35S::DWF1(V531D) (protein)
chain: MSDLQTPLVRPKRKKTWVDYFVKFRWIIVIFIVLPFSATFYFLIYLGDMWSESKSFEKRQKEHDENVKKVIKRLKGRDASKDGLVCTARKPWIAVGMRNVDYKRARHFEVDLGEFRNILEINKEKMTARVEPLVNMGQISRATVPMNLSLAVVAELDDLTVGGLINGYGIEGSSHIYGLFADTVEAYEIVLAGGELVRATRDNEYSDLYYAIPWSQGTLGLLVAAEIRLIKVKEYMRLTYIPVKGDLQALAQGYIDSFAPKDGDKSKIPDFVEGMVYNPTEGVMMVGTYASKEEAKKKGNKINNVGWWFKPWFYQHAQTALKKGQFVEYIPTREYYHRHTRCLYWEGKLILPFGDQFWFRYLLGWLMPPKVSLLKATQGEAIRNYYHDMHVIQDMLVPLYKVGDALEWVHREMEVYPIWLCPHKLFKQPIKGQIYPEPGFEYENRQGDTEDAQMYTDVGVYYAPGCVLRGEEFDGSEAVRRMEKWLIENHGFQPQYAVSELDEKSFWRMFNGELYEECRKKYRAIGTFMSDYYKSKKGRKTEKEVREAEQAHLETAYAEAD
  complementation of the dwf1 null mutant (plant phenotype, height): showed some degree of phenotype rescue, with round, expanded leaves but unextended petioles at the rosette stage and bushy flowering stems reaching up to 40% of the height of the wild-type plant

B3: DWF1(KYR521-523DGD), full length, expressed in planta from 35S::DWF1(KYR521-523DGD) (protein)
chain: MSDLQTPLVRPKRKKTWVDYFVKFRWIIVIFIVLPFSATFYFLIYLGDMWSESKSFEKRQKEHDENVKKVIKRLKGRDASKDGLVCTARKPWIAVGMRNVDYKRARHFEVDLGEFRNILEINKEKMTARVEPLVNMGQISRATVPMNLSLAVVAELDDLTVGGLINGYGIEGSSHIYGLFADTVEAYEIVLAGGELVRATRDNEYSDLYYAIPWSQGTLGLLVAAEIRLIKVKEYMRLTYIPVKGDLQALAQGYIDSFAPKDGDKSKIPDFVEGMVYNPTEGVMMVGTYASKEEAKKKGNKINNVGWWFKPWFYQHAQTALKKGQFVEYIPTREYYHRHTRCLYWEGKLILPFGDQFWFRYLLGWLMPPKVSLLKATQGEAIRNYYHDMHVIQDMLVPLYKVGDALEWVHREMEVYPIWLCPHKLFKQPIKGQIYPEPGFEYENRQGDTEDAQMYTDVGVYYAPGCVLRGEEFDGSEAVRRMEKWLIENHGFQPQYAVSELDEKSFWRMFNGELYEECRKDGDAIGTFMSVYYKSKKGRKTEKEVREAEQAHLETAYAEAD
  complementation of the dwf1 null mutant (plant phenotype): showed very slight phenotypic rescue
